US20230374114A1 (published 2023)
Where two headings read alike, the source gives them in different places.

B1: Ab 23 scFv-Fc (scFv, V domains shown)
VH: EVQLVQSGAEVKKPGSSVKVSCRSSGGTFSTYGITWVRQAPGQGLEWMGRIIPSLGIPNYAQKFQGRVTITADTSVSTAWMELSSLESDDTAIYYCARENIDLATNDFWGQGTLVTVSS
VL: QSALTQPPSASGSPGQSVTISCTGTSRDIGAYGYVSWYQQVPGKAPKLIIYEVRNRPSGVSSRFSGSKSGNTASLTISGLQAEDEADYYCSSYTSSSTLDVVFGGGTKLTVL
B2: Ab 28 scFv-Fc (scFv, V domains shown)
VH: QVTLKESGPGLVNPSETLSLTCTVSGASISNSFWSWIRQSPGKGLEWIGYTSYSGNSIYNPSLKSRLTMSIDTSKNQLSLNLRSLTAADTAVYYCARREWIKGHFDYWGQGTLVTVSS
VL: NFMLTQPHSVSESPGKTVTISCTGSGGSIASNYVQWYQQRPGSAPTTVIYEDNQRPSGVPDRFSGSIDSSSNSASLTISGLKTEDEADYYCQSYDSSNPVVFGGGTKLTVL
B3: Ab 12 scFv-Fc (S1-R3-T1-H7) (scFv, V domains shown)
VH: EVQLVESGPGVVSPSATLFLTCSVSGGSIRTHSWNWIRQPPGKPLEWIGFIHHSGATNKNPSLKSRVTISSDTSKNEFSLTLTSVTAADTAVYYCARGPGILSYWSRGTLVTVSS
VL: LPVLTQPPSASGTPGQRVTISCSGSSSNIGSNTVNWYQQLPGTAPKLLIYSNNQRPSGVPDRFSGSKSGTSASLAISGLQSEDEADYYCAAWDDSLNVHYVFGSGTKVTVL
B4: Ab_17 (scFv, V domains shown)
VH: QVQLVQSGGGVVQPGRSLRLSCAASGFTFDDYAMHWVRQVPGKGLEWVSGIDWNSGVIGYADSVKGRFTISRDNVKNSLYLQMNSLRTEDSALYYCAKDIGPGGSGSYYAFDIWGQGTTVTVSS
VL: QSALTQPASVSGSPGQSITISCTGTSSDVGGSKYVSWYQQHPGKAPKVMIYDVTKRPSGVPDRFSGSKSGNTASLTISGLQAEDEADYYCAAWDDSLNGVVFGGGTKLTVL

Legend:
Experiment in all cases: BLI
[1] = biological target: T1, Biotinylated SARS-CoV-2 S1 protein (ACRO, S1N-C82E8) (UniProt P0DTC2 16-685)
[2] = biological target: T1, Biotinylated SARS-CoV-2 S1 protein …; remark: listed apart in the source
[3] = biological target: T1, Biotinylated SARS-CoV-2 S1 protein …; remark: listed apart in the source
[4] = biological target: T1, Biotinylated SARS-CoV-2 S1 protein …; remark: listed apart in the source
[5] = biological target: T1, Biotinylated SARS-CoV-2 S1 protein …; remark: listed apart in the source
[6] = biological target: T1, Biotinylated SARS-CoV-2 S1 protein …; remark: listed apart in the source

| Binder | Kd [1] [nM] | Kd [2] [nM] | Kd [3] [nM] | Kd [4] [nM] | Kd [5] [nM] | Kd [6] [nM] |
| --- | --- | --- | --- | --- | --- | --- |
| B1 | 0.338 | 0.338 | – | – | – | – |
| B2 | < 0.001 | < 0.001 | – | – | – | – |
| B3 | – | < 0.001 | < 0.001 | < 0.001 | < 0.001 | < 0.001 |
| B4 | 0.716 | 0.716 | – | – | – | – |
